Test results taken from patent US20200055896.

Assays:
[1] = target: ANPFAP, internally-quenched FRET peptide substrate for FAP (Li et al. 2012)
[2] = target: T1, GP probe: fluorescence-quenched peptide of the region flanking the C-terminal human FGF21 cleavage site (VGPSQG)
T1 chain: VGPSQGK

[3] = target: EP probe: fluorescence-quenched peptide of the homologous region of murine FGF21

B1: Human prolyl oligopeptidase (PREP, 4308-SE) (protein)
chain: MLSLQYPDVYRDETAVQDYHGHKICDPYAWLEDPDSEQTKAFVEAQNKITVPFLEQCPIRGLYKERMTELYDYPKYSCHFKKGKRYFYFYNTGLQNQRVLYVQDSLEGEARVFLDPNILSDDGTVALRGYAFSEDGEYFAYGLSASGSDWVTIKFMKVDGAKELPDVLERVKFSCMAWTHDGKGMFYNSYPQQDGKSDGTETSTNLHQKLYYHVLGTDQSEDILCAEFPDEPKWMGGAELSDDGRYVLLSIREGCDPVNRLWYCDLQQESSGIAGILKWVKLIDNFEGEYDYVTNEGTVFTFKTNRQSPNYRVINIDFRDPEESKWKVLVPEHEKDVLEWIACVRSNFLVLCYLHDVKNILQLHDLTTGALLKTFPLDVGSIVGYSGQKKDTEIFYQFTSFLSPGIIYHCDLTKEELEPRVFREVTVKGIDASDYQTVQIFYPSKDGTKIPMFIVHKKGIKLDGSHPAFLYGYGGFNISITPNYSVSRLIFVRHMGGILAVANIRGGGEYGETWHKGGILANKQNCFDDFQCAAEYLIKEGYTSPKRLTINGGSNGGLLVAACANQRPDLFGCVIAQVGVMDMLKFHKYTIGHAWTTDYGCSDSKQHFEWLVKYSPLHNVKLPEADDIQYPSMLLLTADHDDRVVPLHSLKFIATLQYIVGRSRKQSNPLLIHVDTKAGHGAGKPTAKVIEEVSDMFAFIARCLNVDWIP
cleavage of quenched-FRET peptide, 10 nM enzyme [1]: both FAP and PREP efficiently cleave ANPFAP in vitro | cleavage of fluorescence-quenched peptide (FRET-quench assay), 1 nM enzyme [2]: both enzymes readily cleaved the GP peptide

B2: N-terminal octa-His-tagged mouse FAP protein containing the extracellular domain (residues L26-D761) (protein)
chain: LRPSRVYKPEGNTKRALTLKDILNGTFSYKTYFPNWISEQEYLHQSEDDNIVFYNIETRESYIILSNSTMKSVNATDYGLSPDRQFVYLESDYSKLWRYSYTATYYIYDLQNGEFVRGYELPRPIQYLCWSPVGSKLAYVYQNNIYLKQRPGDPPFQITYTGRENRIFNGIPDWVYEEEMLATKYALWWSPDGKFLAYVEFNDSDIPIIAYSYYGDGQYPRTINIPYPKAGAKNPVVRVFIVDTTYPHHVGPMEVPVPEMIASSDYYFSWLTWVSSERVCLQWLKRVQNVSVLSICDFREDWHAWECPKNQEHVEESRTGWAGGFFVSTPAFSQDATSYYKIFSDKDGYKHIHYIKDTVENAIQITSGKWEAIYIFRVTQDSLFYSSNEFEGYPGRRNIYRISIGNSPPSKKCVTCHLRKERCQYYTASFSYKAKYYALVCYGPGLPISTLHDGRTDQEIQVLEENKELENSLRNIQLPKVEIKKLKDGGLTFWYKMILPPQFDRSKKYPLLIQVYGGPCSQSVKSVFAVNWITYLASKEGIVIALVDGRGTAFQGDKFLHAVYRKLGVYEVEDQLTAVRKFIEMGFIDEERIAIWGWSYGGYVSSLALASGTGLFKCGIAVAPVSSWEYYASIYSERFMGLPTKDDNLEHYKNSTVMARAEYFRNVDYLLIHGTADDNVHFQNSAQIAKALVNAQVDFQAMWYSDQNHGISSGRSQNHLYTHMTHFLKQCFSLSD
catalytic efficiency (Michaelis-Menten kinetics) [2]: mouse FAP exhibited a lower catalytic efficiency than human FAP, mainly due to a reduced kcat | cleavage of fluorescence-quenched peptide (FRET-quench assay) [2]: purified recombinant mouse FAP protein cleaved the GP but not GG or EP probes | cleavage of fluorescence-quenched peptide (FRET-quench assay) [3]: purified recombinant mouse FAP protein cleaved the GP but not GG or EP probes

B3: FAP in mouse plasma (protein)
chain: IVLRPSRVYKPEGNTKRALTLKDILNGTFSYKTYFPNWISEQEYLHQSEDDNIVFYNIETRESYIILSNSTMKSVNATDYGLSPDRQFVYLESDYSKLWRYSYTATYYIYDLQNGEFVRGYELPRPIQYLCWSPVGSKLAYVYQNNIYLKQRPGDPPFQITYTGRENRIFNGIPDWVYEEEMLATKYALWWSPDGKFLAYVEFNDSDIPIIAYSYYGDGQYPRTINIPYPKAGAKNPVVRVFIVDTTYPHHVGPMEVPVPEMIASSDYYFSWLTWVSSERVCLQWLKRVQNVSVLSICDFREDWHAWECPKNQEHVEESRTGWAGGFFVSTPAFSQDATSYYKIFSDKDGYKHIHYIKDTVENAIQITSGKWEAIYIFRVTQDSLFYSSNEFEGYPGRRNIYRISIGNSPPSKKCVTCHLRKERCQYYTASFSYKAKYYALVCYGPGLPISTLHDGRTDQEIQVLEENKELENSLRNIQLPKVEIKKLKDGGLTFWYKMILPPQFDRSKKYPLLIQVYGGPCSQSVKSVFAVNWITYLASKEGIVIALVDGRGTAFQGDKFLHAVYRKLGVYEVEDQLTAVRKFIEMGFIDEERIAIWGWSYGGYVSSLALASGTGLFKCGIAVAPVSSWEYYASIYSERFMGLPTKDDNLEHYKNSTVMARAEYFRNVDYLLIHGTADDNVHFQNSAQIAKALVNAQVDFQAMWYSDQNHGISSGRSQNHLYTHMTHFLKQCFSLSD
cleavage of the GP probe in mouse plasma, with cpd60 and KYP-2047 [2]: FAP is the major enzyme responsible for the cleavage of the GP probe in plasma
